Four sequences from the supplement of paper PMC5998384 can be followed below.

The test system of series [1] is HeLa Kyoto. The series can be described thus: solubility in G1/S (NP-40 vs SDS abundance) (log2 ratio); higher = more soluble. Conditions: cell cycle stage: G1/S.
Series [2] concerns HeLa Kyoto. The series can be described thus: thermal stability score vs G1/S (z-score of summed log2 fold changes over temperatures); higher = more thermally stable than in G1/S.
Series [3] relates to HeLa Kyoto. The series can be described thus: melting temperature (median over replicates), in situ; higher = more thermally stable.
In series [4] the test system is HeLa Kyoto. In words: solubility change mitosis vs G1/S (difference of NP-40 vs SDS log2 ratios) (log2 ratio difference); higher = more soluble in mitosis.
The mark [5] stands for this setting: cell cycle stage: early G1 (4.5 h after nocodazole release).
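Throughout, for melting temperature (median over replicates), in situ: HeLa Kyoto cells synchronized by double thymidine or nocodazole block, proteins quantified by TMT10plex mass spectrometry, three independent biological replicates.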
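Throughout, for solubility change mitosis vs G1/S (difference of NP-40 vs SDS log2 ratios): synchronized HeLa Kyoto cells (double thymidine block for G1/S, nocodazole release for mitosis), protein amounts in NP-40 versus SDS lysates quantified by mass spectrometry, three biological replicates.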
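Throughout, for solubility in G1/S (NP-40 vs SDS abundance): HeLa Kyoto cells arrested at G1/S by double thymidine block, proteins quantified by TMT10plex mass spectrometry in mild NP-40 versus SDS extracts, three biological replicates.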
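Throughout, for thermal stability score vs G1/S (z-score of summed log2 fold changes over temperatures): synchronized HeLa Kyoto cells, proteins quantified by TMT10plex mass spectrometry, three biological replicates, mitosis taken 0.5 h after nocodazole release, G1/S directly after double thymidine block.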

Regarding “MASGRRAPRTGLLELRAGAGSGAGGERWQRVLLSLAEDVLTVSPADGDPGPEPGAPREQEPAQLNGAAEPGAGPPQLPEALLLQRRRVTVRKADAGGLGISIKGGRENKMPILISKIFKGLAADQTEALFVGDAILSVNGEDLSSATHDEAVQVLKKTGKEVVLEVKYMKDVSPYFKNSTGGTSVGWDSPPASPLQRQPSSPGPTPRNFSEAKHMSLKMAYVSKRCTPNDPEPRYLEICSADGQDTLFLRAKDEASARSWATAIQAQVNTLTPRVKDELQALLAATSTAGSQDIKQIGWLTEQLPSGGTAPTLALLTEKELLLYLSLPETREALSRPARTAPLIATRLVHSGPSKGSVPYDAELSFALRTGTRHGVDTHLFSVESPQELAAWTRQLVDGCHRAAEGVQEVSTACTWNGRPCSLSVHIDKGFTLWAAEPGAARAVLLRQPFEKLQMSSDDGASLLFLDFGGAEGEIQLDLHSCPKTIVFIIHSFLSAKVTRLGLLA [SNTA1]”, the “solubility in G1/S (log2)” value in the series with HeLa Kyoto [1] was found to be 0.0927. In addition, the figures for the thermal stability score with HeLa Kyoto [2] (setting [5]) and in the series on HeLa Kyoto [2] (cell cycle stage: mitosis) were -0.161 and 0.249, respectively. The melting temperature in the series on HeLa Kyoto [3] (cell cycle stage: G1/S) was determined as 51.2 °C; in the series on HeLa Kyoto [3] (cell cycle stage: mitosis), 49.2 °C. For the same sequence, in the series on HeLa Kyoto [4], the “solubility change mitosis (log2)” value was -0.136.
As for “MASGSGDSVTRRSVASQFFTQEEGPGIDGMTTSERVVDLLNQAALITNDSKITVLKQVQELIINKDPTLLDNFLDEIIAFQADKSIEVRKFVIGFIEEACKRDIELLLKLIANLNMLLRDENVNVVKKAILTMTQLYKVALQWMVKSRVISELQEACWDMVSAMAGDIILLLDSDNDGIRTHAIKFVEGLIVTLSPRMADSEIPRRQEHDISLDRIPRDHPYIQYNVLWEEGKAALEQLLKFMVHPAISSINLTTALGSLANIARQRPMFMSEVIQAYETLHANLPPTLAKSQVSSVRKNLKLHLLSVLKHPASLEFQAQITTLLVDLGTPQAEIARNMPSSKDTRKRPRDDSDSTLKKMKLEPNLGEDDEDKDLEPGPSGTSKASAQISGQSDTDITAEFLQPLLTPDNVANLVLISMVYLPEAMPASFQAIYTPVESAGTEAQIKHLARLMATQMTAAGLGPGVEQTKQCKEEPKEEKVVKTESVLIKRRLSAQGQAISVVGSLSSMSPLEEEAPQAKRRPEPIIPVTQPRLAGAGGRKKIFRLSDVLKPLTDAQVEAMKLGAVKRILRAEKAVACSGAAQVRIKILASLVTQFNSGLKAEVLSFILEDVRARLDLAFAWLYQEYNAYLAAGASGSLDKYEDCLIRLLSGLQEKPDQKDGIFTKVVLEAPLITESALEVVRKYCEDESRTYLGMSTLRDLIFKRPSRQFQYLHVLLDLSSHEKDKVRSQALLFIKRMYEKEQLREYVEKFALNYLQLLVHPNPPSVLFGADKDTEVAAPWTEETVKQCLYLYLALLPQNHKLIHELAAVYTEAIADIKRTVLRVIEQPIRGMGMNSPELLLLVENCPKGAETLVTRCLHSLTDKVPPSPELVKRVRDLYHKRLPDVRFLIPVLNGLEKKEVIQALPKLIKLNPIVVKEVFNRLLGTQHGEGNSALSPLNPGELLIALHNIDSVKCDMKSIIKATNLCFAERNVYTSEVLAVVMQQLMEQSPLPMLLMRTVIQSLTMYPRLGGFVMNILSRLIMKQVWKYPKVWEGFIKCCQRTKPQSFQVILQLPPQQLGAVFDKCPELREPLLAHVRSFTPHQQAHIPNSIMTILEASGKQEPEAKEAPAGPLEEDDLEPLTLAPAPAPRPPQDLIGLRLAQEKALKRQLEEEQKLKPGGVGAPSSSSPSPSPSARPGPPPSEEAMDFREEGPECETPGIFISMDDDSGLTEAALLDSSLEGPLPKETAAGGLTLKEERSPQTLAPVGEDAMKTPSPAAEDAREPEAKGNS [SYMPK]”, in the series with HeLa Kyoto [1], the “solubility in G1/S (log2)” value amounted to 0.0291. The thermal stability score was determined as 1.75 with HeLa Kyoto [2] (setting [5]) and 4.2 in the series with HeLa Kyoto [2] (cell cycle stage: mitosis). Also, the melting temperature amounted to 48.1 °C with HeLa Kyoto [3] (cell cycle stage: G1/S) and 49.1 °C in the series on HeLa Kyoto [3] (cell cycle stage: mitosis). For the same sequence, in the series on HeLa Kyoto [4], the “solubility change mitosis (log2)” value is -0.0648.
On to “MASGTTTTAVKIGIIGGTGLDDPEILEGRTEKYVDTPFGKPSDALILGKIKNVDCVLLARHGRQHTIMPSKVNYQANIWALKEEGCTHVIVTTACGSLREEIQPGDIVIIDQFIDRTTMRPQSFYDGSHSCARGVCHIPMAEPFCPKTREVLIETAKKLGLRCHSKGTMVTIEGPRFSSRAESFMFRTWGADVINMTTVPEVVLAKEAGICYASIAMATDYDCWKEHEEAVSVDRVLKTLKENANKAKSLLLTTIPQIGSTEWSETLHNLKNMAQFSVLLPRH [MTAP]”, for which, in the series with HeLa Kyoto [1], the “solubility in G1/S (log2)” value is 0.254. For the same sequence, the thermal stability score was -1.8 in the series with HeLa Kyoto [2] (setting [5]) and -2.68 with HeLa Kyoto [2] (cell cycle stage: mitosis). Besides, the figures for the melting temperature in the series with HeLa Kyoto [3] (cell cycle stage: G1/S) and in the series with HeLa Kyoto [3] (cell cycle stage: mitosis) were 60 °C and 60.5 °C, respectively. In the series with HeLa Kyoto [4], the “solubility change mitosis (log2)” value is -0.0344.
With “MASILRSPQALQLTLALIKPDAVAHPLILEAVHQQILSNKFLIVRMRELLWRKEDCQRFYREHEGRFFYQRLVEFMASGPIRAYILAHKDAIQLWRTLMGPTRVFRARHVAPDSIRGSFGLTDTRNTTHGSDSVVSASREIAAFFPDFSEQRWYEEEEPQLRCGPVCYSPEGGVHYVAGTGGLGPA [NME6]”, the “solubility in G1/S (log2)” value in the series with HeLa Kyoto [1] is 0.31. Moreover, the thermal stability score is -2.16 in the series with HeLa Kyoto [2] (setting [5]) and -1.08 in the series with HeLa Kyoto [2] (cell cycle stage: mitosis). Further, the melting temperature with HeLa Kyoto [3] (cell cycle stage: G1/S) is 51.3 °C; in the series with HeLa Kyoto [3] (cell cycle stage: mitosis) it was 55.2 °C. Besides, the “solubility change mitosis (log2)” value in the series with HeLa Kyoto [4] stood at 0.636.
